First the molecules themselves.
B1: H2-Kb / Ed33 (parent complex)
chain 1: SQLAEENSWALSVHEGESVTVNCSYKTSITALQWYRQKSGKGPAQLILIRSNEREKRNGRLRATLDTSSQSSSLSITATRCEDTAVYFCATDHNNAGAKLTFGGGTRLTVRP
chain 2: DAGVTQTPRHEVAEKGQTIILKCEPVSGHNDLFWYRQTKIQGLELLSYFRSKSLMEDGGAFKDRFKAEMLNSSFSTLKIQPTEPKDSAVYLCASSLYTNQAPLFGEGTRLSVL
chain 3: not shown
chain 4: IQKTPQIQVYSRHPPENGKPNILNCYVTQFHPPHIEIQMLKNGKKIPKVEMSDMSFSKDWSFYILAHTEFTPTETDTYACRVKHDSMAEPKTVYWDRDM
chain 5: SIINFEKL

This assay covers variants of B1. The assay can be described thus: % of reporter cells activated (NFAT-GFP), raw. Note: test concentration or dose not given here.
In the case of chain 5 K7T, the ratio to parent came to 0.0585.

As to chain 5 K7R, the ratio to parent turned out to be 0.318. To chain 5 K7G belongs 0.204.

Regarding chain 5 K7E, the ratio to parent amounted to 0.0117. Turning to chain 5 K7N, the ratio to parent is 0.216. On to chain 5 K7C, for which the ratio to parent was 0.063.

For chain 5 K7H, the ratio to parent amounted to 0.0435. chain 5 S1V: the ratio to parent amounted to 0.349. To chain 5 S1R belongs 0.392; to chain 5 S1M, 0.675. The same measure for chain 5 S1L: 0.0492; for chain 5 S1Y: 0.414. To chain 5 S1E belongs 1.02; to chain 5 S1I, 0.0715.

Take chain 5 S1C: the ratio to parent stood at 0.295.

chain 5 S1A: the ratio to parent amounted to 0.461. The same measure for chain 5 S1P: 0.115; for chain 5 S1F: 0.3. As to chain 5 F5T, the ratio to parent turned out to be 1.08. In the case of chain 5 F5V, the ratio to parent was determined as 0.917. The same measure for chain 5 F5I: 0.655. To chain 5 F5P belongs 0.988. The same measure for chain 5 F5W: 0.968; for chain 5 F5H: 0.911; for chain 5 F5S: 0.958. With chain 5 F5D, the ratio to parent came out at 0.85. Regarding chain 5 F5A, the ratio to parent was determined as 1.1.

As for chain 5 I2A, the ratio to parent was found to be 0.885. The same measure for chain 5 I2P: 1.03; for chain 5 I2H: 0.835. To chain 5 I2C belongs 0.918. With chain 5 I2G, the ratio to parent is 0.456. Take chain 5 I2Q: the ratio to parent is 0.918. On to chain 5 I2Y, for which the ratio to parent is 0.715.

chain 5 I2E: the ratio to parent is 1.03. The same measure for chain 5 I2K: 1.01; for chain 5 L8C: 0.824; for chain 5 L8F: 0.941.

Turning to chain 5 L8S, the ratio to parent came to 0.84. In the case of chain 5 L8M, the ratio to parent is 0.936.

Regarding chain 5 L8Q, the ratio to parent is 0.9. With chain 5 L8R, the ratio to parent amounted to 0.873. The same measure for chain 5 L8I: 0.988; for chain 5 L8A: 0.913. To chain 5 L8E belongs 0.8.

Turning to chain 5 E6A, the ratio to parent was 0.055.

On to chain 5 E6T, for which the ratio to parent was 0.0145. To chain 5 E6G belongs 0.513; to chain 5 E6I, 0.00689. With chain 5 E6Q, the ratio to parent came to 0.218. To chain 5 E6D belongs 0.113; to chain 5 E6K, 0.425. The same measure for chain 5 I3F: 0.0275; for chain 5 I3Y: 0.0463. The same measure for chain 5 I3S: 1.01.

For chain 5 I3N, the ratio to parent was found to be 0.932. To chain 5 I3V belongs 0.933. To chain 5 I3W belongs 0.836; to chain 5 I3L, 0.984. The same measure for chain 5 I3R: 0.581; for chain 5 I3G: 1.03; for chain 5 I3Q: 1.08. For the variant chain 5 I3K, the ratio to parent stood at 0.656.

For the variant chain 5 I3E, the ratio to parent worked out at 1.06. To chain 5 I3P belongs 1.09; to chain 5 N4T, 0.0148; to chain 5 N4W, 0.0116. To chain 5 N4E belongs 0.246; to chain 5 N4R, 0.168. The same measure for chain 5 N4S: 0.00273. For chain 5 N4Q, the ratio to parent came to 0.00449. With chain 5 N4G, the ratio to parent amounted to 0.294. To chain 5 N4A belongs 0.00624; to chain 5 N4H, 0.134. The same measure for chain 5 N4K: 0.41.

(Values after article PMC11480844 (2024).)
